PMC13066097 (Nature Communications, 2026)
Substitutions are numbered along the chain they refer to.

Assays:
[1] = molecular target: T1, recombinant PcrV protein (rePcrV) coated on ELISA plates (Pseudomonas aeruginosa, strain not told …); experiment: ELISA
T1 chain: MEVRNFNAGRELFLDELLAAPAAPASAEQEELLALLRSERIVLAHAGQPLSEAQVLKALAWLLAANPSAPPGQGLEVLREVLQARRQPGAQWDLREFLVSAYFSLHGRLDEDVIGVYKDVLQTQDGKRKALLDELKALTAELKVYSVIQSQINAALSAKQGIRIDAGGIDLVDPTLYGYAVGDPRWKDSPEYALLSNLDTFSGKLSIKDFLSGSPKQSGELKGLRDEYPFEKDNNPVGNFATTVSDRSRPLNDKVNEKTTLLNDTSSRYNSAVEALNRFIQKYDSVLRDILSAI

[2] = molecular target: T2, 6xHis-tagged PcrV of P. aeruginosa clinical isolate KN28 expressed in E. coli (Pseudomonas aeruginosa KN28 (ST357), strain); experiment: immunoblot
T2 chain: T1 chain with G9A, R225K

[3] = molecular target: 6xHis-tagged PcrV of P. aeruginosa clinical isolate KN34 expressed in E. coli (Pseudomonas aeruginosa KN34 (ST186), strain); experiment: immunoblot
[4] = molecular target: T3, 6xHis-tagged PcrV of P. aeruginosa clinical isolate KN27 expressed in E. coli (Pseudomonas aeruginosa KN27 (ST235), strain); experiment: immunoblot
T3 chain: T1 chain with V55E

[5] = molecular target: T4, 6xHis-tagged PcrV of P. aeruginosa clinical isolate KP2401 expressed in E. coli (Pseudomonas aeruginosa KP2401 (ST5295), strain); experiment: immunoblot
T4 chain: T1 chain with G9A, V55E

[6] = molecular target: T5, 6xHis-tagged PcrV of P. aeruginosa clinical isolate KN5 expressed in E. coli (Pseudomonas aeruginosa KN5 (ST357), strain); experiment: immunoblot
T5 chain: T1 chain with G9A, R225K

[7] = molecular target: T6, 6xHis-tagged PcrV of P. aeruginosa clinical isolate KN41 expressed in E. coli (Pseudomonas aeruginosa KN41 (ST235), strain); experiment: immunoblot
T6 chain: T1 chain with V55E

[8] = molecular target: T7, 6xHis-tagged PcrV of P. aeruginosa clinical isolate KN17 expressed in E. coli (Pseudomonas aeruginosa KN17 (ST357), strain); experiment: immunoblot
T7 chain: T1 chain with G9A, R225K

[9] = molecular target: 6xHis-tagged PcrV of P. aeruginosa clinical isolate KN37 expressed in E. coli (Pseudomonas aeruginosa KN37 (ST244), strain); experiment: immunoblot
[10] = molecular target: 6xHis-tagged PcrV of P. aeruginosa clinical isolate KN15 expressed in E. coli (Pseudomonas aeruginosa KN15 (ST512), strain); experiment: immunoblot
[11] = molecular target: 6xHis-tagged PcrV of P. aeruginosa clinical isolate KN33 expressed in E. coli (Pseudomonas aeruginosa KN33 (ST508), strain); experiment: immunoblot
[12] = molecular target: T8, PcrV of P. aeruginosa clinical isolate KN41, from bacterial culture (Pseudomonas aeruginosa KN41 (ST235), strain); experiment: immunoblot
T8 chain: T1 chain with V55E

[13] = molecular target: T9, PcrV of P. aeruginosa clinical isolate KP2401, from bacterial culture (Pseudomonas aeruginosa KP2401 (ST5295), strain); experiment: immunoblot
T9 chain: T1 chain with G9A, V55E

[14] = molecular target: T10, PcrV of P. aeruginosa clinical isolate KN5, from bacterial culture (Pseudomonas aeruginosa KN5 (ST357), strain); experiment: immunoblot
T10 chain: T1 chain with G9A, R225K

[15] = molecular target: T11, PcrV of P. aeruginosa clinical isolate KN17, from bacterial culture (Pseudomonas aeruginosa clinical isolate …, strain); experiment: immunoblot
T11 chain: T1 chain with G9A, R225K

[16] = molecular target: PcrV of P. aeruginosa clinical isolate KN34, from bacterial culture (Pseudomonas aeruginosa KN34 (ST186), UniProt G3XD49, strain); experiment: immunoblot
[17] = molecular target: T12, PcrV of P. aeruginosa clinical isolate KN28, from bacterial culture (Pseudomonas aeruginosa KN28 (ST357); …, strain); experiment: immunoblot
T12 chain: T1 chain with G9A, R225K

[18] = molecular target: PcrV of P. aeruginosa strain PAO1, from bacterial culture (Pseudomonas aeruginosa PAO1); experiment: immunoblot
[19] = molecular target: PcrV of P. aeruginosa clinical isolate KN33, from bacterial culture (Pseudomonas aeruginosa KN33 (ST508), UniProt G3XD49, strain); experiment: immunoblot
[20] = molecular target: T13, PcrV of P. aeruginosa clinical isolate KN27, from bacterial culture (Pseudomonas aeruginosa KN27 (ST235), strain); experiment: immunoblot
T13 chain: T1 chain with V55E

[21] = molecular target: PcrV of P. aeruginosa clinical isolate KN15, from bacterial culture (Pseudomonas aeruginosa KN15 (ST512), strain); experiment: immunoblot
[22] = molecular target: PcrV of P. aeruginosa clinical isolate KN37, from bacterial culture (Pseudomonas aeruginosa KN37 (ST244), UniProt G3XD49, strain); experiment: immunoblot

B1: anti-PcrV scFv antibody scFv-m166 (recombinant protein) (scFv, V domains shown)
VH: QVQLKQSGPGLVQPSQSLSITCTVSGFSLTSYGVHWVRQSPGKGLEWLGVIWSGGDTDYNAAFISRLSISKDNSKSQLFFKMNSLRATDTAIYYCARNRGDIYYDFTYAMDYWGQGTSVTVSS
VL: DIQMTQSPASLSASVGETVTITCRASGNIQNYLAWYQQTQGKSPQLLVYSAKTLADGVPSRFSGSGSGTQYSLKINSLQPEDFGSYYCQHFWSTPYTFGGGTKLEIK
EC50 [1]: 35 nM

B2: murine monoclonal anti-PcrV IgG mAb166 (antibody, V domains shown)
VH: B1 VH
VL: B1 VL
binding result [2]: binds | binding result [3]: binds | binding result [4]: binds | binding result [5]: binds | binding result [6]: binds | binding result [7]: binds | binding result [8]: binds | binding result [9]: binds | binding result [10]: binds | binding result [11]: binds | binding result [12]: binds | binding result [13]: binds | binding result [14]: binds | binding result [15]: binds | binding result [16]: binds | binding result [17]: binds | binding result [18]: binds | binding result [19]: binds | binding result [20]: binds | binding result [21]: binds | binding result [22]: binds

B3: anti-PcrV scFv conjugated with the mouse IgG1 hinge, CH2 and CH3 domains, scFv-m166-mFc (recombinant protein) (Fc fusion)
VH: B1 VH
VL: B1 VL
EC50 [1]: 57.2 nM
